Publication PMC6555819, “Comprehensive study of nuclear receptor DNA binding provides a revised framework for understanding receptor specificity”

B1: NRC3_wobSeed18_DR0_A8G_o1 (dsDNA)
DNA 1: GCGATACGGGGTCAAGGCCAGAGTACGCGTATTGATGCGATTGACAGCGTAGAATGAAGG
DNA 2: CCTTCATTCTACGCTGTCAATCGCATCAATACGCGTACTCTGGCCTTGACCCCGTATCGC
B2: NRC3_wobSeed41_DR1_A15G_o1 (dsDNA)
DNA 1: GCATATGTAGGTTAGGGGTCATTCAGGTTGGTTCGCGCGATTGACAGCGTAGAATGAAGG
DNA 2: CCTTCATTCTACGCTGTCAATCGCGCGAACCAACCTGAATGACCCCTAACCTACATATGC
B3: NRC3_wobSeed26_DR1_A23G_o1 (dsDNA)
DNA 1: GCTCTAGTTGGTCAAAGGTCACGCACTCGAAATGCGGCGATTGACAGCGTAGAATGAAGG
DNA 2: CCTTCATTCTACGCTGTCAATCGCCGCATTTCGAGTGCGTGACCTTTGACCAACTAGAGC
B4: NRC3_wobSeed109_DR4_C7T_o1 (dsDNA)
DNA 1: GCCGTCTAAGGTCATAGGAGGTCAGTGAAGACAGATGCGATTGACAGCGTAGAATGAAGG
DNA 2: CCTTCATTCTACGCTGTCAATCGCATCTGTCTTCACTGACCTCCTATGACCTTAGACGGC
B5: NRC3_random_hg19_25_o1 (dsDNA)
DNA 1: GCGAGCCACCACGCCTGGCCTCTCCGATCTCCAACTGCGATTGACAGCGTAGAATGAAGG
DNA 2: CCTTCATTCTACGCTGTCAATCGCAGTTGGAGATCGGAGAGGCCAGGCGTGGTGGCTCGC
B6: NRC3_random_hg19_391_o1 (dsDNA)
DNA 1: GCTAGATATGAGTCTGGCTTGCTGCTATCTACTTCAGCGATTGACAGCGTAGAATGAAGG
DNA 2: CCTTCATTCTACGCTGTCAATCGCTGAAGTAGATAGCAGCAAGCCAGACTCATATCTAGC
B7: NRC3_wobSeed97_DR4_C7A_o1 (dsDNA)
DNA 1: GCCAAAATAGGTCACGAAAGGTCAAAGTCGAATGACGCGATTGACAGCGTAGAATGAAGG
DNA 2: CCTTCATTCTACGCTGTCAATCGCGTCATTCGACTTTGACCTTTCGTGACCTATTTTGGC
B8: NRC3_wobSeed123_DR5_A12T_o1 (dsDNA)
DNA 1: GCCCTCGGAGGTCAACAGGAGGTCAGAGCTGCCAGAGCGATTGACAGCGTAGAATGAAGG
DNA 2: CCTTCATTCTACGCTGTCAATCGCTCTGGCAGCTCTGACCTCCTGTTGACCTCCGAGGGC
B9: NRC3_wobSeed29_DR1_C8A_o1 (dsDNA)
DNA 1: GCGCTTAAGGGTCAAAGGTTATAGCATGAATAGAATGCGATTGACAGCGTAGAATGAAGG
DNA 2: CCTTCATTCTACGCTGTCAATCGCATTCTATTCATGCTATAACCTTTGACCCTTAAGCGC

Key:
PPARa:RXRa = PPARa:RXRa (Homo sapiens, UniProt Q07869;P19793 full;full); test: no ligand; PBM; 270 nM : 90 nM RXRa; PBS pH 7.4, 2% milk, 0.02% Triton X-100, 1 mM DTT, BSA, 0.4 mg/ml salmon testes DNA; settings: tags: GST kept;His cleaved; copies: 1;1; label: surface-attached array probe
How it was run: (§1)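 Binding z-scores take random background probes as their reference. They come from custom Agilent 4×180K protein-binding microarrays incubated 1 h with ligand-free nuclear receptor dimers, with antibodies against each partner (one per run) detecting binding. Scanned fluorescence was regression-normalized.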

RARa:RXRa = RARa:RXRa (Homo sapiens, UniProt P10276;P19793 full;full); test: as above; settings: tags: His kept;His cleaved; copies: 1;1; label: surface-attached array probe
How it was run: as §1

PXR:RXRa = PXR:RXRa (Homo sapiens, UniProt O75469;P19793 full;full); test: as above; settings: tags: His kept;His cleaved; copies: 1;1; label: surface-attached array probe
How it was run: as §1

FXR:RXRa = FXR:RXRa (Homo sapiens, UniProt Q96RI1;P19793 full;full); test: as above; settings: tags: His kept;His cleaved; copies: 1;1; label: surface-attached array probe
How it was run: as §1

LXRb:RXRa = LXRb:RXRa (Homo sapiens, UniProt P55055;P19793 full;full); test: as above; settings: tags: His kept;His cleaved; copies: 1;1; label: surface-attached array probe
How it was run: as §1

RXRa = RXRa (Homo sapiens, UniProt P19793); test: no ligand; PBM; 180 nM; PBS pH 7.4, 2% milk, 0.02% Triton X-100, 1 mM DTT, BSA, 0.4 mg/ml salmon testes DNA; settings: tags: His cleaved; chain copies: 2; label: surface-attached array probe
VDR:RXRa = VDR:RXRa (Homo sapiens, UniProt P11473;P19793 full;full); test: no ligand; PBM; 270 nM : 90 nM RXRa; PBS pH 7.4, 2% milk, 0.02% Triton X-100, 1 mM DTT, BSA, 0.4 mg/ml salmon testes DNA; settings: tags: His kept;His cleaved; copies: 1;1; label: surface-attached array probe
How it was run: as §1

RARb:RXRa = RARb:RXRa (Homo sapiens, UniProt P10826;P19793 full;full); test: as above; settings: tags: His kept;His cleaved; copies: 1;1; label: surface-attached array probe
How it was run: as §1

RARg:RXRa = RARg:RXRa (Homo sapiens, UniProt P13631;P19793 full;full); test: as above; settings: tags: His kept;His cleaved; copies: 1;1; label: surface-attached array probe
How it was run: as §1

LXRa:RXRa = LXRa:RXRa (Homo sapiens, UniProt Q13133;P19793 full;full); test: as above; settings: tags: His kept;His cleaved; copies: 1;1; label: surface-attached array probe
How it was run: as §1

Chain of PXR:RXRa (O75469 whole entry, chain 1 of 2): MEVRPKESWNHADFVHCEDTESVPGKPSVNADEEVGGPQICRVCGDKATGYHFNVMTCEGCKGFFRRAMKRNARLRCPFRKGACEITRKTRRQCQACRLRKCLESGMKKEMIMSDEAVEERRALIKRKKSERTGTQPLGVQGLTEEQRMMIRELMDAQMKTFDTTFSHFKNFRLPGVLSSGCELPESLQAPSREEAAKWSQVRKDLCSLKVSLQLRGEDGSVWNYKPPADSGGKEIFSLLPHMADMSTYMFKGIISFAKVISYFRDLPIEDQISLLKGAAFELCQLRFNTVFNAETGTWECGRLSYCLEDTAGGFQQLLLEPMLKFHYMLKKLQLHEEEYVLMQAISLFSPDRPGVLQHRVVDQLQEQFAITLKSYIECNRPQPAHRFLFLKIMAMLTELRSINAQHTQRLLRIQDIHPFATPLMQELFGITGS
Chain of PXR:RXRa (P19793 whole entry, chain 2 of 2): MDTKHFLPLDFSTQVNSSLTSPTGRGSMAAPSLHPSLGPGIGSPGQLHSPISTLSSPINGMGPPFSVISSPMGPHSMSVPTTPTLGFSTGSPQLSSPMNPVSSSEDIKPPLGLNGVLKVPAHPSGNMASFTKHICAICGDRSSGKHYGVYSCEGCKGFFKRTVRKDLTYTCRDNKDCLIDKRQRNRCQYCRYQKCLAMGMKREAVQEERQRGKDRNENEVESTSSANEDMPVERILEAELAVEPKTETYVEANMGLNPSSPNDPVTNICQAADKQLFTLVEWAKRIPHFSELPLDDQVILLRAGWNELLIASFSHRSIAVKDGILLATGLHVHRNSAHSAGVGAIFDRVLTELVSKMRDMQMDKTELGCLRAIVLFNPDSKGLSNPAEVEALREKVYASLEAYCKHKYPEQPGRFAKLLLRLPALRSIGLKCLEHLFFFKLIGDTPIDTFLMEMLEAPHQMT
Chain of RARa:RXRa (P10276 whole entry, chain 1 of 2): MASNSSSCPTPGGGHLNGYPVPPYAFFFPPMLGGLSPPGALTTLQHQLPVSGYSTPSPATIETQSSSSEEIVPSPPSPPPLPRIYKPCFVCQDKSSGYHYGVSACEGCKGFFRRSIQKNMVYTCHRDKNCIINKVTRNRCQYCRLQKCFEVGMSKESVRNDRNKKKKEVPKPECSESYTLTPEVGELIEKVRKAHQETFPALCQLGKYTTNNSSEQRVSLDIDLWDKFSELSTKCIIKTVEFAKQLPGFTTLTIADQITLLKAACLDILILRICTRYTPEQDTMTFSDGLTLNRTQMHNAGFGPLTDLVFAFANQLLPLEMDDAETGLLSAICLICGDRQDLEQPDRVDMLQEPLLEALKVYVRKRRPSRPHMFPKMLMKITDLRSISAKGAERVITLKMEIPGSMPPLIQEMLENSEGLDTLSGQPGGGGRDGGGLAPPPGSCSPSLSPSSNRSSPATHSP
Chain of RARa:RXRa (P19793 whole entry, chain 2 of 2): as the sequence (P19793 whole entry, chain 2 of 2) above
Chain of RARb:RXRa (P10826 whole entry, chain 1 of 2): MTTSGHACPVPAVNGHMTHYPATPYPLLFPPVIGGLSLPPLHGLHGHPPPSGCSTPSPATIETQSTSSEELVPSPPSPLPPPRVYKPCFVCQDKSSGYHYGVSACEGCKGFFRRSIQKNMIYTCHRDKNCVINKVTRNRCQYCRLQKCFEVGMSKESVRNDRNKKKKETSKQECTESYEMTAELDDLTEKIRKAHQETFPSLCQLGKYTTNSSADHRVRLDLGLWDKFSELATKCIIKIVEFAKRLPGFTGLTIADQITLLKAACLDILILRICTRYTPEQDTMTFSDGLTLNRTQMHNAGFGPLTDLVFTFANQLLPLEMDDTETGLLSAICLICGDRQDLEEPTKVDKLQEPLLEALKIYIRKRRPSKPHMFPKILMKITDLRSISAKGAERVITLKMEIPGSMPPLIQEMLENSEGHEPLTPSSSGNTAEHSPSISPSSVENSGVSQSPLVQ
Chain of RARb:RXRa (P19793 whole entry, chain 2 of 2): as the sequence (P19793 whole entry, chain 2 of 2) above
Chain of LXRb:RXRa (P55055 whole entry, chain 1 of 2): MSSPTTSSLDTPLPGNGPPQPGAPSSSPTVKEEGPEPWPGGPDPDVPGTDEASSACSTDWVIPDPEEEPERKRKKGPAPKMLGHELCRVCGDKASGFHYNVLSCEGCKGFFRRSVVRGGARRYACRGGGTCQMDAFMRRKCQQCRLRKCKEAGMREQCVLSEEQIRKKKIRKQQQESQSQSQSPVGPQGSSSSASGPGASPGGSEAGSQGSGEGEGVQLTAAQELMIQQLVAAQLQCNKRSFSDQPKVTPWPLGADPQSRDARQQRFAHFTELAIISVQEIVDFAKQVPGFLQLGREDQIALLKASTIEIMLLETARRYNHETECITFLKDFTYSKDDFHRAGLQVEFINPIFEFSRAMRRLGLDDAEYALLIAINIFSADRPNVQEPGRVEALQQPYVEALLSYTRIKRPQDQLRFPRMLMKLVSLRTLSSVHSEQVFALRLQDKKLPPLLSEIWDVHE
Chain of LXRb:RXRa (P19793 whole entry, chain 2 of 2): as the sequence (P19793 whole entry, chain 2 of 2) above
Chain of LXRa:RXRa (Q13133 whole entry, chain 1 of 2): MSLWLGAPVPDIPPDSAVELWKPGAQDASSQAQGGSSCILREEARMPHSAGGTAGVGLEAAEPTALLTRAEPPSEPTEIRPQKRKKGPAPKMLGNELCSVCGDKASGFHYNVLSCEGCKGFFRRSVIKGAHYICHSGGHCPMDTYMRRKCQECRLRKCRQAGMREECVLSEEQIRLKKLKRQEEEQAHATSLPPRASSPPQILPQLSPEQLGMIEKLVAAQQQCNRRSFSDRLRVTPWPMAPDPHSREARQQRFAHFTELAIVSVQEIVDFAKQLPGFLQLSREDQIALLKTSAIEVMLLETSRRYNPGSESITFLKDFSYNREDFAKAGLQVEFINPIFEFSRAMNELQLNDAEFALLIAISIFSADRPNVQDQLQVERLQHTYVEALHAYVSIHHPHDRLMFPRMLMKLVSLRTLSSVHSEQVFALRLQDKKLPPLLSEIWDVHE
Chain of LXRa:RXRa (P19793 whole entry, chain 2 of 2): as the sequence (P19793 whole entry, chain 2 of 2) above

Row | Binder | binding signal (PPARa:RXRa) | binding signal (RARa:RXRa) | binding signal (PXR:RXRa) | binding signal (FXR:RXRa) | binding signal (LXRb:RXRa) | binding signal (RXRa) | binding signal (VDR:RXRa) | binding signal (RARb:RXRa) | binding signal (RARg:RXRa) | binding signal (LXRa:RXRa)
1 | B1 | 6.56 PBM z-score against 500 random probes | 7.56 PBM z-score against 500 random probes | 6.46 PBM z-score against 500 random probes | 8.08 PBM z-score against 500 random probes | 5.96 PBM z-score against 500 random probes | 8.69 PBM z-score against 500 random probes |  |  |  | 
2 | B2 |  | 7.24 PBM z-score against 500 random probes | 6.45 PBM z-score against 500 random probes |  | 5.79 PBM z-score against 500 random probes |  | 6.69 PBM z-score against 500 random probes |  |  | 
3 | B3 |  | 8.13 PBM z-score against 500 random probes | 6.52 PBM z-score against 500 random probes |  | 6.1 PBM z-score against 500 random probes |  |  | 5.6 PBM z-score against 500 random probes | 7.77 PBM z-score against 500 random probes | 
4 | B4 |  | 7.11 PBM z-score against 500 random probes | 7.34 PBM z-score against 500 random probes | 8.24 PBM z-score against 500 random probes |  |  |  |  |  | 8.01 PBM z-score against 500 random probes
5 | B5 |  | -0.44 PBM z-score against 500 random probes | -0.45 PBM z-score against 500 random probes |  | -0.09 PBM z-score against 500 random probes |  |  |  |  | -0.38 PBM z-score against 500 random probes
6 | B6 |  | -0.46 PBM z-score against 500 random probes | -0.47 PBM z-score against 500 random probes |  | -0.73 PBM z-score against 500 random probes |  |  |  |  | 
7 | B7 |  | 8.32 PBM z-score against 500 random probes | 7.78 PBM z-score against 500 random probes | 8.43 PBM z-score against 500 random probes | 7.91 PBM z-score against 500 random probes |  | 7.26 PBM z-score against 500 random probes |  | 8.41 PBM z-score against 500 random probes | 
8 | B8 | 6.94 PBM z-score against 500 random probes | 7.44 PBM z-score against 500 random probes | 6.48 PBM z-score against 500 random probes | 7.97 PBM z-score against 500 random probes |  |  |  | 5.85 PBM z-score against 500 random probes | 8.86 PBM z-score against 500 random probes | 6.72 PBM z-score against 500 random probes
9 | B9 |  | 9.1 PBM z-score against 500 random probes | 6.86 PBM z-score against 500 random probes | 8.78 PBM z-score against 500 random probes | 6.56 PBM z-score against 500 random probes |  |  | 5.58 PBM z-score against 500 random probes | 7.9 PBM z-score against 500 random probes | 
